Data on one molecule can be found in publication doi:10.1101/2020.05.24.113654 (bioRxiv, 2020).

This assay has as its target T1, Cre^Cat (interdomain linker and C-terminal catalytic domain of Cre recombinase, residues 127-343) (UniProt P06956 127-343).
T1 sequence (looked up): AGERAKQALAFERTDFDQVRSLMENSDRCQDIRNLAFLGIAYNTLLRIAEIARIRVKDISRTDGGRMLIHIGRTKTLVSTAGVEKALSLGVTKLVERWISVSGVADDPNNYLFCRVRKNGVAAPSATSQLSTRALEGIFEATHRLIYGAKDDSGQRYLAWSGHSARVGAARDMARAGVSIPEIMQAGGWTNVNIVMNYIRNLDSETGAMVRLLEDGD
The assay can be described thus: intermolecular PRE-NMR.

B1: MTSL tagged-Cre^Cat C155A/C240A/D343C (domain or fragment, UniProt P06956 127-343, looked up)
chain: AGERAKQALAFERTDFDQVRSLMENSDRAQDIRNLAFLGIAYNTLLRIAEIARIRVKDISRTDGGRMLIHIGRTKTLVSTAGVEKALSLGVTKLVERWISVSGVADDPNNYLFARVRKNGVAAPSATSQLSTRALEGIFEATHRLIYGAKDDSGQRYLAWSGHSARVGAARDMARAGVSIPEIMQAGGWTNVNIVMNYIRNLDSETGAMVRLLEDGC
modifications: MTSL paramagnetic spin probe on C-terminal residue C343
Turning to B1, the binding result is on record as “binds”.
